Results published in paper doi:10.1101/2025.10.30.685675v2.

Tested on: CCCC(=O)Oc1ccc([N+](=O)[O-])cc1
Assay: purified protein
Settings: pH 8.0; 25.0 °C

SfDLH (Solimonas fluminis)
Km: 0.16 mM
